Measurements: US20210380702A1 (Regeneron, published 2021)
Where a chain is given by its changes, count along the chain named. Names and notes keep the numbering of the source. Values joined by “and” are separate entries in the source; they are usually repeats but may differ in a detail not shown here. Equal entries are not always repeated.

B1: H1H9364P2 (antibody, V domains shown)
VH: EVQLVESGGGLVQPGRSLRLSCAASGFTFDDYALHWVRQAPGKGLEWVSGISWTGGTIDYADSVKGRFTISRDNAKNSLYLQMSSLRTEDTAIYYCTRDIRGNWKYGGWFDPWGQGTLVTVSS
VL: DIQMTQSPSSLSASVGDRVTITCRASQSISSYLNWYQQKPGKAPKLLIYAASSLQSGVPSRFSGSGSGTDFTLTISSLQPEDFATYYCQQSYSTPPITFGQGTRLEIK
notes: human IgG1 Fc (H1H prefix)
B2: H2aM8309N (antibody, V domains shown)
VH: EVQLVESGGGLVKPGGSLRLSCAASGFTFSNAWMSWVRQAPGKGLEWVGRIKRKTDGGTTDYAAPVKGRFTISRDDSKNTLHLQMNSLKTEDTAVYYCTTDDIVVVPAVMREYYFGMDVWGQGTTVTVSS
VL: DIQMTQSPSSLSASVGDRVTITCRTSQGIRNDLGWYQQKPGKAPKRLIYAASSLQSGVPSRFSGSGSGTEFTLTISSLQPEDFATYYCLQHNNYPYTFGQGTKLEIK
notes: human variable regions, mouse IgG2 Fc (H2aM prefix); also called H2M8309N
B3: H2aM8314N (antibody, V domains shown)
VH: EVQLVESGGGVVRPGGSLRLSCAASGFTFDDYGMTWVRQAPGRGLEWVSGIHWHGKRTGYADSVKGRFTISRDNAKKSLYLQMNSLKGEDTALYHCVRGGMSTGDWFDPWGQGTLVIVSS
VL: DIQMTQSPSSLSASLGDRVTITCRASQSINSYLNWYQQKPGKAPKLLIYVASSLQSGVPSRFSGSGSGTEFTLTISNLQPEDFATYYCQQSYSTPPITFGQGTRLEIK
notes: human variable regions, mouse IgG2 Fc (H2aM prefix); also called H2M8314N
B4: H2aM8317N (antibody, V domains shown)
VH: EVQLVESGGGLVQPGGSLRLSCAASGFTVGSNYMNWVRQAPGKGLEWVSVIYSGGSTYYADSVKGRFTISRLTSKNTLYLQMSSLRPEDTAVYYCARGIRGLDVWGQGTTVTVSS
VL: B3 VL with L15V, S28T, S31I, K42R, K45R, V50A, E70D, N77S, Q89H
notes: human variable regions, mouse IgG2 Fc (H2aM prefix); also called H2M8317N
B5: H2aM8321N (antibody, V domains shown)
VH: EERLVESGGDLVQPGGSLRLSCAASGITVGTNYMNWVRQAPGKGLEWVSVISSGGNTHYADSVKGRFIMSRQTSKNTLYLQMNSLETEDTAVYYCARGIRGLDVWGQGTMVTVSS
VL: B3 VL with L15V, I29M, N30S, K42R, Y49F, V50A, E70D, N77S
notes: human variable regions, mouse IgG2 Fc (H2aM prefix); also called H2M8321N
B6: H2aM8312N (antibody, V domains shown)
VH: QVHLVQSGAEVKKPGASVKVSCKASGYTFTGYYIHWVRQAPGHGLEWMGWLNPNTGTTKYIQNFQGRVTMTRDTSSSTAYMELTRLRSDDTAVYYCARDEDWNYGSWFDTWGQGTLVTVSS
VL: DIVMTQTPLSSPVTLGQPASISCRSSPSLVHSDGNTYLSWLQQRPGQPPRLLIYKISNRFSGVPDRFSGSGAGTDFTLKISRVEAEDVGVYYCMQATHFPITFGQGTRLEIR
notes: human variable regions, mouse IgG2 Fc (H2aM prefix); also called H2M8312N
B7: H2aM8306N (antibody, V domains shown)
VH: EVQLVESGGGLVQPGGSLRLSCAASGFTFSRFWMSWVRQAPGKGLEWVANINQDGTEKYYVDSVKGRFTISRDNAKNSLYLQMNSLRAGDTAVYYCANTYYDFWSGHFDYWGQGTLVTVSS
VL: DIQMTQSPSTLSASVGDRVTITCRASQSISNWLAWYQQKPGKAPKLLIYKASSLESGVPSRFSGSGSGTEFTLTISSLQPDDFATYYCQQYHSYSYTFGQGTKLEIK
notes: human variable regions, mouse IgG2 Fc (H2aM prefix); also called H2M8306N
B8: H2aM8323N (antibody, V domains shown)
VH: QVQLVQSGAEVKMPGSSVRVSCKASGGIFSSSTISWVRQAPGQGLEWMGEIIPVFGTVNYAQKFQDRVIFTADESTTTAYMELSSLKSGDTAVYFCARNWGLGSFYIWGQGTMVTVSS
VL: EIVLTQSPGTLSLSPGERATLSCRASQSFNFNYLAWYQQKPGQAPRLLIYGASSRATGIPDRFSGSGSGTDFTLTINRLEPEDFGVFYCQQYESAPWTFGQGTKVEIK
notes: human variable regions, mouse IgG2 Fc (H2aM prefix); also called H2M8323N
B9: H2aM8310N (antibody, V domains shown)
VH: QVQLVQSGAEVKKPGASVQVSCKASGYSFTGYYIHWVRQAPGQGLEWMGWINPNSGTKKYAHKFQGRVTMTRDTSIDTAYMILSSLISDDTAVYYCARDEDWNFGSWFDSWGQGTLVTVSS
VL: DIVMTQTPLSSPVTLGQPASISCRSSQTLVHGDGNTYLSWIQQRPGQPPRLLIYKVSNQFSGVPDRFSGSGAGTDFTLKISRVEAEDVGLYFCMQATHFPITFGQGTRLEIK
notes: human variable regions, mouse IgG2 Fc (H2aM prefix); also called H2M8310N

How the values were obtained:
[1] = molecular target: T1, recombinant human PD-L1 (amino acids 19-239 of NP_054862.1) expressed with a C-terminal human IgG1 Fc tag (human); assay: SPR (Biacore 3000): 100 nM hPD-L1-hFc + 500 nM mAb on captured hPD-1-mFc, 25C
T1 construct: also called hPD-L1-hFc
Method: Next, inhibition studies for anti-PD-L1 monoclonal antibodies expressed with human Fc were performed on Biacore 3000 instrument. […] The entire experiment was performed at 25° C. in HBST running buffer (0.01 M HEPES pH7.4, 0.15M NaCl, 3 mM EDTA, 0.05% v/v Surfactant P20). The real-time binding responses were monitored during the entire course of the experiment and the binding response at the end of every step was recorded.

[2] = molecular target: T2, full length human PD-L1 (amino acids 1 to 290 of NP_054862.1) on transfected cells (human, UniProt Q9NZQ7 19-290); assay: FACS, 100 nM antibody, HEK293/hPD-L1 cells
T2 construct: also called HEK293/hPD-L1; Raji/hPD-L1
Method: (§1) The binding of anti-PD-L1 antibodies to a human embryonic kidney cell line (HEK293; ATCC, #CRL-1573) stably transfected with full length human PD-L1 (amino acids 1 to 290 of accession number NP_054862.1) (HEK293/hPD-L1) was determined by FACS.
(§2) For the assay, adherent cells were detached using enzyme-free dissociation buffer and blocked with complete medium. Cells were centrifuged and resuspended at a concentration of 2.8×10\hat{ }6 cells/mL in cold PBS containing 2% FBS. […] Cells were washed with D-PBS containing 2% FBS to remove unbound secondary detection reagents and fluorescence measurements were acquired using a HyperCyte (IntelliCyt, Inc.) flow cytometer. Data was analyzed using HyperCyte software.

[3] = molecular target: T3, recombinant human PD-L1 (amino acids 19-239 of NP_054862.1) expressed with a C-terminal mouse IgG2a Fc tag (human); assay: competition ELISA: 0.5 nM hPD-L1-mFc binding to coated hPD-1-hFc
T3 construct: called dimeric; also called hPD-L1-mFc
Method: (§3) The ability of monoclonal anti-PD-L1 antibodies to block human PD-L1 from binding to its binding partners, the human PD-1 and the human B7-1 receptors, was measured using two competition sandwich ELISA formats.
(§4) A dimeric human PD-1 protein comprised of a portion of the extracellular domain (amino acids 25-170 of accession number NP_005009.2 with a C93S change) that was expressed with a C-terminal hFc tag (hPD-1-hFc; SEQ ID: 350) and a dimeric human B7-1 protein comprised of a portion of the extracellular domain expressed with C-terminal hFc tag and hexahistidine tags (hB7-1-hFc-6His; R&D Systems, #140-B1) were separately coated at 2 μg/mL on a 96-well microtiter plate in a PBS buffer overnight at 4° C. […] These antibody-protein complexes were then incubated for 1 hour at room temperature (RT). […] The complexes were allowed to bind to the coated plates for 1 hour at RT. […] Samples were developed with a TMB solution (BD Biosciences, #51-2606KC and #51-2607KC) to produce a colorimetric reaction and neutralized with 1M sulfuric acid before measuring absorbance at 450 nm on a Victor X5 plate reader. Data analysis used a sigmoidal dose-response model within Prism™ software.

[4] = molecular target: T4, recombinant cynomolgus monkey PD-L1 expressed with a C-terminal mouse IgG2a Fc tag (cynomolgus monkey); assay: SPR (Biacore), mAb captured, 37C
T4 construct: also called MfPD-L1-mFc; monkey PD-L1-mFc

[5] = molecular target: T2, full length human PD-L1 (amino acids 1 …); assay: FACS, 100 nM antibody
Method: as §1, §2

[6] = molecular target: T3, recombinant human PD-L1 (amino acids …); assay: competition ELISA: 8 nM hPD-L1-mFc binding to coated hB7-1-hFc-6His
Method: as §3, §4

[7] = molecular target: T2, full length human PD-L1 (amino acids 1 …); assay: cell-based or functional assay
[8] = molecular target: T3, recombinant human PD-L1 (amino acids …); assay: BLI (Octet Red96): 100 nM hPD-L1-mFc + 500 nM mAb on captured hPD-1-hFc, 25C
Method: Inhibition studies for anti-PD-L1 monoclonal antibodies expressed with mouse Fc were performed on an Octet Red96 instrument. […] Approximately 0.8 nm to 1.2 nm of recombinant human PD-1 expressed with a C-terminal human IgG1 Fc tag (hPD-1-hFc; SEQ ID: 350) was captured using anti-human IgG Fc capture biosensors. […] The entire experiment was performed at 25° C. in Octet HBST buffer (0.01 M HEPES pH7.4, 0.15M NaCl, 3 mM EDTA, 0.05% v/v Surfactant P20, 0.1 mg/mL BSA) with a plate shaking at a speed of 1000 rpm. The biosensors were washed in Octet HBST buffer in between each step of the experiment. The real-time binding response was monitored during the course of the experiment and the binding response at the end of every step was recorded.

T3 sequence (chain, as listed by the source limits assumed): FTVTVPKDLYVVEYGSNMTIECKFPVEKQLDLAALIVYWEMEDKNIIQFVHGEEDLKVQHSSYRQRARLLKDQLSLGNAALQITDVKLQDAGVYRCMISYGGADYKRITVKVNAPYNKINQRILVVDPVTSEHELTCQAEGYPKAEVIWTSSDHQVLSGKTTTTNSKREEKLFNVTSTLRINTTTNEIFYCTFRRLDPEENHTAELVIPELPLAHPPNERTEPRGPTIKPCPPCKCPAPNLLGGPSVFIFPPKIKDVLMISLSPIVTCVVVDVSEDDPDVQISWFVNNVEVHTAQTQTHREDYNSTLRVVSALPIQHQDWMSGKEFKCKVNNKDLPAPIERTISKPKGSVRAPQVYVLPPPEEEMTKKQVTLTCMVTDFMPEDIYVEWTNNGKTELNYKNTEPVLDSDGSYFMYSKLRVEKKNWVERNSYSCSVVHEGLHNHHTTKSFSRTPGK
T2 sequence (Q9NZQ7 19-290 limits assumed): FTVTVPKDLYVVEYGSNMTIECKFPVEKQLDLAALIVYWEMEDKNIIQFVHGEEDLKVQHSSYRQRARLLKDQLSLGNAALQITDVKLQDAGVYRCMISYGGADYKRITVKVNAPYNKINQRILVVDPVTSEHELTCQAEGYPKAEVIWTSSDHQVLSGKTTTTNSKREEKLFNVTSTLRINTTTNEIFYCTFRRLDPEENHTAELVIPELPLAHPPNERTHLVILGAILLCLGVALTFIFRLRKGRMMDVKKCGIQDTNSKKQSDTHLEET
T4 sequence (chain, as listed by the source limits assumed): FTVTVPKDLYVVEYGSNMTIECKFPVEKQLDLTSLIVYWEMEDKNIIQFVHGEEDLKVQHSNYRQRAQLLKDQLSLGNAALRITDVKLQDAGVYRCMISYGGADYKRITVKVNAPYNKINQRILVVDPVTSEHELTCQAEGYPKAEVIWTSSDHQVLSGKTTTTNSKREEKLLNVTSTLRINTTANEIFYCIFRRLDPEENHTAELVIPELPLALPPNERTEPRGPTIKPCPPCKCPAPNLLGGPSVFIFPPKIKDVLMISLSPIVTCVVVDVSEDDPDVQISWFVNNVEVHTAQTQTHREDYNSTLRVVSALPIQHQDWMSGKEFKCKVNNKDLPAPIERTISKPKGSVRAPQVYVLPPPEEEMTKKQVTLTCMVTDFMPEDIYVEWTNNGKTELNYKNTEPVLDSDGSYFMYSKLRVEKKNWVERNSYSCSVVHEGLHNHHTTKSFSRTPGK
T1 sequence (chain, as listed by the source limits assumed): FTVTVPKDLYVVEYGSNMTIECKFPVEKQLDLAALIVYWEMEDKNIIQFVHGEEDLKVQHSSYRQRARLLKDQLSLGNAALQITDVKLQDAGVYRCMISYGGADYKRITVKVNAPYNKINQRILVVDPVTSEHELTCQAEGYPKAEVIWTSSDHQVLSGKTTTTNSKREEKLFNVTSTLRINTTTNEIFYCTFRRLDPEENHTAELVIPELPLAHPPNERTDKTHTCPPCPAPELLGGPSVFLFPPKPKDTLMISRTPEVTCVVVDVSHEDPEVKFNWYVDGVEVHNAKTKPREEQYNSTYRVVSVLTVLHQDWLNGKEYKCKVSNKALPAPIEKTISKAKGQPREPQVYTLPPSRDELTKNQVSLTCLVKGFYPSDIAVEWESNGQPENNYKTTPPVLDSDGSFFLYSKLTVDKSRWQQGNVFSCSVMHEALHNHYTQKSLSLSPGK

Row | Binder | % Blocking [1] | MFI [2] | % maximum blocking [3] | IC50 [3] | Kd [4] | koff [4] | kon [4] | t1/2 [4] | Ratio of HEK293/hPD-L1 to HEK293 parental cells [5] | % maximum blocking [6] | IC50 [6] | Concentration [M] of Antibody at 125% activation [7] | Emax mean [%] @ 100 nM [7] | % Blocking [8]
1 | B1 | 86% | 324000 MFI | 100% | < 0.25 nM | 0.0471 nM and 0.028 nM | 0.000111 s⁻¹ and 6.76e-05 s⁻¹ | 2.36e+06 M⁻¹ s⁻¹ and 2.41e+06 M⁻¹ s⁻¹ | 1.73 h and 2.85 h | 157 | 101% | 4.1 nM |  |  | 
2 | B2 |  | 193000 MFI | 98% | < 0.25 nM |  |  |  |  | 166 | 98% | < 4 nM | 3.09e-10 M | 181% | 94%
3 | B3 |  | 195000 MFI | 93% | < 0.25 nM |  |  |  |  | 95 | 97% | < 4 nM | 1.44e-11 M | 235% | 94%
4 | B4 |  | 67600 MFI | -11% |  |  |  |  |  | 53 | -166% |  |  | 109% | -87%
5 | B5 |  | 112000 MFI | 10% |  |  |  |  |  | 85 | -124% |  |  | 117% | -94%
6 | B6 |  | 158000 MFI | 23% |  |  |  |  |  | 115 | 98% | < 4 nM |  | 75.6% | -68%
7 | B7 |  | 316000 MFI | 99% | < 0.25 nM |  |  |  |  | 246 | 93% | < 4 nM | 3.78e-09 M | 167% | 94%
8 | B8 |  | 163000 MFI | 100% | < 0.25 nM |  |  |  |  | 73 | 99% | < 4 nM | 2.2e-10 M | 173% | 94%
9 | B9 |  | 14900 MFI | 76% | 0.39 nM |  |  |  |  | 11 | 98% | < 4 nM |  | 113% | 58%
